What is called Km is the substrate concentration at which the rate is half of its maximum. In general, kcat refers to the number of substrate molecules converted per active site and unit of time at saturation. Usually kcat/Km stands for the turnover number divided by the Michaelis constant.

The source of these data is publication PMC3564036.

Substrate in the data set: Nc1ncnc2c1ncn2[C@@H]1O[C@H](COP(=O)(O)OP(=O)(O)O)[C@@H](O)[C@H]1O
The data set can be described thus: purified protein. The data set is classed as biochemical, Homo sapiens. Particulars: Mg2+.

B1: PPIP5K2 (Homo sapiens) (protein)
chain: MSEAPRFFVGPEDTEINPGNYRHFFHHADEDDEEEDDSPPERQIVVGICSMAKKSKSKPMKEILERISLFKYITVVVFEEEVILNEPVENWPLCDCLISFHSKGFPLDKAVAYAKLRNPFVINDLNMQYLIQDRREVYSILQAEGILLPRYAILNRDPNNPKECNLIEGEDHVEVNGEVFQKPFVEKPVSAEDHNVYIYYPTSAGGGSQRLFRKIGSRSSVYSPESNVRKTGSYIYEEFMPTDGTDVKVYTVGPDYAHAEARKSPALDGKVERDSEGKEVRYPVILNAREKLIAWKVCLAFKQTVCGFDLLRANGQSYVCDVNGFSFVKNSMKYYDDCAKILGNIVMRELAPQFHIPWSIPLEAED
As to B1, the Michaelis-Menten constant (Km) was 5.2 ± 1.5 µM, the kcat was 0.002 s⁻¹ and the kcat/Km stood at 370 M⁻¹ s⁻¹.
